From article PMC7465229 come the findings set out here.

The test system of this data set is H5N1 influenza A virus, whole virion (hemagglutinin presumed target) (Influenza A virus H5N1 (A/wild duck/Korea/SNU50-5/2011)). The data set is described as follows: rGO fluorescence recovery. The settings on record: assay buffer, pH and temperature not stated ([…].

The term Kd denotes the constant that tells how readily two partners part at equilibrium. With “ATGCGGATCCCGCGCGCGACCGTGTCAGCGGGGACTAGCGGTGTAGCGCGAAGCTTGCGC [HBA1]”, the Kd is 0.0701 µM.

With CCGCGCGGGTCTGAGGAGTGCGCGG [tHBA2], the Kd is 1.32 µM.

“ATGCGGATCCCGCGCGGGTCTGAGGAGTGCGCGGTGCCAGTGAGTGCGCGAAGCTTGCGC [HBA2]” displayed an equilibrium dissociation constant (Kd) of 0.122 µM.

For GACCGTGTCAGCGGGGACTAGCGGTG [tHBA1], the Kd was found to be 0.492 µM.
